The results in this text go back to the DeepSol protein solubility set.

A short description of this series: soluble on expression in E. coli; label from the status in PepcDB or PDB records.
As for “MNYSLRQLRIFITVAQAKSFSRAGDRIGLSQSAVSHSVKELERQTGVRLLDRTTREVVLTEAGQQLATRLERVLDELNSILRDAGRVGTQLTGTVRVAASQTISAHLIPQCIAQSNSLYPAIDFVLHDRPQQWVLESIRQGEVDFGIVIDPGAAVDLQCEAILSEPFLLLCRQDHPLAHQEWVSWQDLKQASLVLQDYASGSRPLIDAALAHFAIEADIVQEIGHPATLFPMVEAGIGISVLPALALPLPQGSHLQVKRLTPVVERQLMLARRKNRSLSTAAQALWDVVRTQASELTAARAKDPLYQL”, the “soluble on expression in E. coli” value is recorded as “not soluble”.
Take “MCTALSPKVRSGPGLSDMHQYSQWLASRHEANLLPMKEDLALWLTNLLGKEITAETFMEKLDNGALLCQLAETMQEKFKESMDANKPTKNLPLKKIPCKTSAPSGSFFARDNTANFLSWCRDLGVDETCLFESEGLVLHKQPREVCLCLLELGRIAARYGVEPPGLIKLEKEIEQEETLSAPSPSPSPSSKSSGKKSTGNLLDDAVKRISEDPPCKCPNKFCVERLSQGRYRVGEKILFIRMLHNKHVMVRVGGGWETFAGYLLKHDPCRMLQISRVDGKTSPIQSKSPTLKDMNPDNYLVVSASYKAKKEIKLEHHHHHH”: the “soluble on expression in E. coli” value is “not soluble”.
The entry for “MHSFLQFLRDDNPGSLEDHLNFVPSDDLKYELGMLLSSRPLYLETDELPFVSSSVLNYGIKSSVFVVSAGEHSDSVNDEISSRILMMLQRYESRLEEPVVEYLSSDDNYSFFSVTALFFMDMVRLCIKWDKNSGEFSLDE” is “not soluble”; for “MSRKNISLTESLEEYIFRNSVREPDSFLKLRKETGTLAQANMQISPEEGQFLNILTKISGAKRIIEIGTFTGYSSLCFASALPEDGKILCCDVSEEWTNVARKYWKENGLENKIFLKLGSALETLQVLIDSKSAPSWASDFAFGPSSIDLFFLDADKENYPNYYPLILKLLKPGGLLIADNVLWDGSVADLSHQEPSTVGIRKFNELVYNDSLVDVSLVPIADGVSLVRKRLEHHHHHH” it is “soluble”; for “SESICNSLNSKLEPTLENLENLDVSAFQAPEDLLDGCRIYLCGFSGRKLDKLRRLINSGGGVRFNQLNEDVTHVIVGDYDDELKQFWNKSAHRPHVVGAKWLLECFSKGYMLSEEPYIH” it is “soluble”.
On to “MEGGFGSDFGGSGSGKLDPGLIMEQVKVQIAVANAQELLQRMTDKCFRKCIGKPGGSLDNSEQKCIAMCMDRYMDAWNTVSRAYNSRLQRERANM”, for which the “soluble on expression in E. coli” value is listed as “not soluble”.
The entry for “MSLTNDVDAIQPIGLRRIDHIAQTMKFDEMQDWLLYYISTFEMDKSSIVNVNDPSGIILSQAIESPEGEVRLNLNASEDLNTFAGLFVEDKFGAGVQHIAFASDDIFESANLLRINGFKSLAIPSGYYEETKNKFNLNDTFIAQLKKQNILYDQDGNSEYFQIYSKNLFDGFFFEIVQRKNGYSGYGARNASVRLSSQTILQQAEGHHHHHH” is “not soluble”.
The entry for “MGSDKIHHHHHHMTKVRVAGFGVSLDGFAAGTAQSLDHPLGVRGEEIFQWFFPTRTFRQMLGKEGGDTGLDDRFAQRAMEGFGAFILGRNMFGPVRGEWPDDQWKGWWGDNPPYHAPTFILTHHARPSIEMLGGTTFHFVTGGIEDALEKARKAAGGKDVKIGGGVKTVKQYVQAGYVDEIHLAFAPVALGQGESLFGGLDLRTLGYQTVEHVPTDRATHIVLAK” is “not soluble”.
Take “MGSDKIHHHHHHMPYKTLKTIDYEAHHDSKTVGTEYERRIHNYGIFKSGLYPFLIDHQELSQDRRELFITPLREIAIACERIEYNSAELKSKLKELPPIAEELYLKKSLINEITTSNRLSGIAVRRTEVKAALDSINKDNQEQVRFAPMAKMYNKILEDDFQRIESFVDLRKVYNQLLFGLIEKEQMPDGAFFRNRPVSIKNDQQKIIFQLPGNENDLEQRLSNWLKFISNKNIPFMIKGLLAHGYFENIHPFYDGNGRTSRYILSLYLARKLDLVTGLNVAQAIYENRESYEKALLALGDQGNFAEGSFFINDSLSMIENRQRKIIEDLDVNIKQLSRTNKKIQQIYQINSPEYFVLNLLLQSKIFTDNQADGLLDREIVEISENSKHSKRAINLAIKSLEQKKQITTLKKNPFQHSIDIN”: the “soluble on expression in E. coli” value is “not soluble”.
The value for “MILERVEIVGFRGINRLSLMLEQNNVLIGENAWGKSSLLDALTLLLSPESDLYHFERDDFWFPPGDINGREHHLHIILTFRESLPGRHRVRRYRPLEACWTPCTDGYHRIFYRLEGESAEDGSVMTLRSFLDKDGHPIDVEDINDQARHLVRLMPVLRLRDARFMRRIRNGTVPNVPNVEVTARQLDFLARELSSHPQNLSDGQIRQGLSAMVQLLEHYFSEQGAGQARYRLMRRRASNEQRSWRYLDIINRMIDRPGGRSYRVILLGLFATLLQAKGTLRLDKDARPLLLIEDPETRLHPIMLSVAWHLLNLLPLQRIATTNSGELLSLTPVEHVCRLVRESSRVAAWRLGPSGLSTEDSRRISFHIRFNRPSSLFARCWLLVEGETETWVINELARQCGHHFDAEGIKVIEFAQSGLKPLVKFARRMGIEWHVLVDGDEAGKKYAATVRSLLNNDREAEREHLTALPALDMEHFMYRQGFSDVFHRVAQIPENVPMNLRKIISKAIHRSSKPDLAIEVAMEAGRRGVDSVPTLLKKMFSRVLWLARGRAD” was “not soluble”; that for “GSMIRSTLSSWREYLTPITHKSTFLTTGQITPEEFVQAGDYLCHMFPTWKWNEESSDISYRDFLPKNKQFLIIRKVPCDKRAEQCVEVEGPDVIMKGFAEDGDEDDVLEYIGSETEHVQSTPAGGTKDSSIDDIDELIQDMEIKEEDENDDTEEFNAKGGLAKDMAQERYYDLYIAYSTSYRVPKMYIVGFNSNGSPLSPEQMFEDISADYRTKTATIEKLPFYKNSVLSVSIHPCKHANVMKILLDKVRVVRQRRRKELQEEQELDGVGDWEDLQDDIDDSLRVDQYLIVFLKFITSVTPSIQHDYTMEGW” was “soluble”.
The entry for “MATRRRIGVAAIQKKQETANKFAAKGDQMAGEQLVQFSQQLEQLSAGLEMFAQRHRDEIKKNSQFRRHFQEMCASVGVDPLASSKGFWAKALGFGDFYYELGIQIVEICLSTTHINGGIMTVEEIRNRLMRTRSRTRKDTISTDDILRAVDKLKVLGNGFELVPLGGGRFLVQSVPGELSMDHSRVLQLAEDAAYVTKELIIDKLRWDEARASSALEHLVKEGLAWTDEQASDTTQYWFPSLFLQQYCHSSSSTSVSESLHSMSFNNYQ” is “not soluble”; for “DSLKAEVNTLFARFDEQPLAAASIAQVHTAALFDGREVIVKVTRPNIRTQILQDFEIISWLGQSLESRLEAARALHLSEIIQDYRQIILNELDLTLEADNTRRMRHYFTGSSMMYVPEVY” it is “not soluble”; for “MVITLPKLKYALNALSPHISEETLNFHYNKHHAGYVNKLNTLIKDTPFAEKSLLDIVKESSGAIFNNAAQIWNHTFYWDSMGPDCGGEPHGEIKEKIQEDFGSFNNFKEQFSNILCGHFGSGWGWLALNNNNKLVILQTHDAGNPIKDNTGIPILTCDIWEHAYYIDYRNDRASYVKAWWNLVNWNFANENLKKAMQKLEHHHHHH” it is “soluble”.
On to “MNNSEQLIALKESETAFLKYFNKADYELVDFSVVEKLDWKQLNHEDLQQMGERNFWQHEHQIYALRNDFTDQLLRYYSMYPTAATKVAYTGLIIRNNEAAVQVGLENYAPSLANVQQSLKLFIQFIQQQLRDNVHFVVLGHYQLLDALLDKSLQTPDILSMIEERNLSGLVTYLSTEHPIVQILKENTQQQLNVLEHYIPNDHPALVELKIWERWLHTQGYKDIHLDITAQPPRSYYTGLFIQCHFAENESRVLTGGYYKGSIEGFGLGLTL”, for which the “soluble on expression in E. coli” value was “soluble”.
The entry for “MQSKTAKLPDNDRNRPLIQTFNDAQQKVWFDDALLHEDPSQCCNPEFWQQNGKVLGSATGRGTTWFVQLQQTQGALRHYRRGGLFGKLVADSYWFTGWEKTRSYQEFMLLNHLRDAGVNVPRPIAARVQKHGLLYKADLLSEKVPNARDLVSILQESPISDELYRKIGREIRKMHDAQVNHTDLNIHNILIDDQEKVWIIDFDKCYVQIGDSWKQGNLKRLKRSFEKEVCKRGINWSLEAFAIISSYKHEE” is “not soluble”.
